Patent EP4624492A1 (Shanghai Hongcheng Biopharmaceutical Co., Ltd., dated 2025)

Legend:
[1] = molecular target: T1, human CCR8 (human, UniProt P51685 1-355); experiment: flow cytometry, competition with 10 nM AF647-human CCL1 on 293F-hCCR8 cells
T1 construct: whole, on cells; the cell line is named under assay; also called hCCR8

[2] = molecular target: T1, human CCR8; experiment: cell-based or functional assay
[3] = molecular target: T1, human CCR8; experiment: flow cytometry on 293F-hCCR8 cells
[4] = molecular target: T1, human CCR8; experiment: cell-based or functional assay; remark: listed apart in the source

T1 sequence (P51685 whole entry): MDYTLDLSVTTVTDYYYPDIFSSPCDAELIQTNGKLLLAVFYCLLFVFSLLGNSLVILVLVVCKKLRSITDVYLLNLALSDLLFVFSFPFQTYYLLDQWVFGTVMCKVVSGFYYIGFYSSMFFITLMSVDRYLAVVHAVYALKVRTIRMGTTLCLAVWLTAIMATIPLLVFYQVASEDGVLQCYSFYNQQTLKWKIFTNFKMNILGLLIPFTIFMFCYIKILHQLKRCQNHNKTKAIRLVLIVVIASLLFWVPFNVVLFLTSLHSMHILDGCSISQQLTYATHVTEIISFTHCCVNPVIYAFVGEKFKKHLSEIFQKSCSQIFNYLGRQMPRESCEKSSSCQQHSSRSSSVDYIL

Binder	IC50 [1] [mg/L]	IC50 of blockade of CCL1-induced β-arrestin recruitment [2] [mg/L]	EC50 [3] [mg/L]	EC50 of activation of Jurkat-human FcγRIIIa(158V)-NFAT with 293F-hCCR8 target cells [4] [mg/L]
563E10E12_hzH3L0_hIgG1 (antibody, Humanized, hIgG1/K) heavy: not shown light: DIVMTQSPLSLPVTPGEPASISCRSSKSLLHSNGITYLFWYLQKPGQSPQLLIYQMSNLASGVPDRFSGSGSGTDFTLKISRVEAEDVGVYYCAQSLELPLTFGGGTKVEIKRTVAAPSVFIFPPSDEQLKSGTASVVCLLNNFYPREAKVQWKVDNALQSGNSQESVTEQDSKDSTYSLSSTLTLSKADYEKHKVYACEVTHQGLSSPVTKSFNRGEC	0.0761	1.16	0.133	0.0357
563E10E12_hzH0L0_hIgG1 (antibody, Humanized, hIgG1/K) heavy: not shown light: DIVMTQSPLSLPVTPGEPASISCRSSKSLLHSNGITYLFWYLQKPGQSPQLLIYQMSNLASGVPDRFSGSGSGTDFTLKISRVEAEDVGVYYCAQSLELPLTFGGGTKVEIKRTVAAPSVFIFPPSDEQLKSGTASVVCLLNNFYPREAKVQWKVDNALQSGNSQESVTEQDSKDSTYSLSSTLTLSKADYEKHKVYACEVTHQGLSSPVTKSFNRGEC	0.0958	3.51	0.107	0.0286
563E10E12_hzH6L1_hIgG1 (antibody, Humanized, hIgG1/K) heavy: not shown light: DVVMTQSPLSLPVTPGEPASISCRSSKSLLHSNGITYLFWYLQKPGQSPQLLIYQMSNLASGVPDRFSGSGSGTDFTLKISRVEAEDVGVYYCAQSLELPLTFGGGTKVEIKRTVAAPSVFIFPPSDEQLKSGTASVVCLLNNFYPREAKVQWKVDNALQSGNSQESVTEQDSKDSTYSLSSTLTLSKADYEKHKVYACEVTHQGLSSPVTKSFNRGEC	0.0579	1.65	0.0593	–
563E10E12_hzH6L0_hIgG1 (antibody, Humanized, hIgG1/K) heavy: not shown light: DIVMTQSPLSLPVTPGEPASISCRSSKSLLHSNGITYLFWYLQKPGQSPQLLIYQMSNLASGVPDRFSGSGSGTDFTLKISRVEAEDVGVYYCAQSLELPLTFGGGTKVEIKRTVAAPSVFIFPPSDEQLKSGTASVVCLLNNFYPREAKVQWKVDNALQSGNSQESVTEQDSKDSTYSLSSTLTLSKADYEKHKVYACEVTHQGLSSPVTKSFNRGEC	0.0543	1.84	0.0569	–
563E10E12_hzH0L1_hIgG1 (antibody) heavy: not shown light: DVVMTQSPLSLPVTPGEPASISCRSSKSLLHSNGITYLFWYLQKPGQSPQLLIYQMSNLASGVPDRFSGSGSGTDFTLKISRVEAEDVGVYYCAQSLELPLTFGGGTKVEIKRTVAAPSVFIFPPSDEQLKSGTASVVCLLNNFYPREAKVQWKVDNALQSGNSQESVTEQDSKDSTYSLSSTLTLSKADYEKHKVYACEVTHQGLSSPVTKSFNRGEC	0.0862	3.65	0.118	0.0299
563E10E12_hzH2L0_hIgG1 (antibody, Humanized, hIgG1/K) heavy: not shown light: DIVMTQSPLSLPVTPGEPASISCRSSKSLLHSNGITYLFWYLQKPGQSPQLLIYQMSNLASGVPDRFSGSGSGTDFTLKISRVEAEDVGVYYCAQSLELPLTFGGGTKVEIKRTVAAPSVFIFPPSDEQLKSGTASVVCLLNNFYPREAKVQWKVDNALQSGNSQESVTEQDSKDSTYSLSSTLTLSKADYEKHKVYACEVTHQGLSSPVTKSFNRGEC	0.0689	1.46	0.103	0.0281
27B9-1G3_hzH1L2_hIgG1 (antibody, V domains shown, Humanized, hIgG1/K; hzVH01 + hzVL02) VH: QVQLVQSGAEVKKPGSSVKVSCKASGGTFSGYNMNWVRQAPGQGLEWMGNIDPYYGGTNYNQKFKGRVTITADKSTSTAYMELSSLRSEDTAVYYCARETWFITTGVIKKGFYFDYWGQGTTVTVSS VL: EIVLTQSPATLSLSPGERATLACSASSIISSNYLHWYQQKPGQAPRLLIYRTSSLASGIPARFSGSGSGTDYTLTISSLEPEDFAVYYCQQGSSIPRTFGGGTKVEIKR	0.291	–	0.237	–
27B9-1G3_hzH2L3_hIgG1 (antibody, V domains shown, Humanized, hIgG1/K; hzVH02 + hzVL03) VH: QVQLVQSGAEVKKPGSSVKVSCKASGYSFTGYNMNWVRQAPGQGLEWMGNIDPYYGGTNYNQKFKGRVTITADKSTSTAYMELSSLRSEDTAVYYCARETWFITTGVIKKGFYFDYWGQGTTVTVSS VL: EIVLTQSPATLSLSPGERATLACSASSIISSNYLHWYQQKPGQSPRLLIYRTSSLASGVPARFSGSGSGTSYTLTISSLEPEDFAVYYCQQGSSIPRTFGGGTKVEIKR	0.192	–	0.212	–
27B9-1G3_hzH1L1_hIgG1 (antibody, V domains shown, Humanized, hIgG1/K; hzVH01 + hzVL01) VH: QVQLVQSGAEVKKPGSSVKVSCKASGGTFSGYNMNWVRQAPGQGLEWMGNIDPYYGGTNYNQKFKGRVTITADKSTSTAYMELSSLRSEDTAVYYCARETWFITTGVIKKGFYFDYWGQGTTVTVSS VL: EIVLTQSPATLSLSPGERATLSCSASSIISSNYLHWYQQKPGQAPRLLIYRTSSLASGIPARFSGSGSGTDFTLTISSLEPEDFAVYYCQQGSSIPRTFGGGTKVEIKR	0.31	–	0.188	–
27B9-1G3_hzH4L3_hIgG1 (antibody, V domains shown, Humanized, hIgG1/K; hzVH04 + hzVL03) VH: QVQLVQSGAEVKKPGSSVKVSCKASGYSFTGYNMNWVRQAPGQGLEWMGNIDPYYGGTNYNQKFKGKATITADKSTSTAYMELSSLRSEDTAVYYCARETWFITTGVIKKGFYFDYWGQGTTVTVSS VL: EIVLTQSPATLSLSPGERATLACSASSIISSNYLHWYQQKPGQSPRLLIYRTSSLASGVPARFSGSGSGTSYTLTISSLEPEDFAVYYCQQGSSIPRTFGGGTKVEIKR	0.167	–	0.22	–
27B9-1G3_hzH4L2_hIgG1 (antibody, V domains shown, Humanized, hIgG1/K; hzVH04 + hzVL02) VH: QVQLVQSGAEVKKPGSSVKVSCKASGYSFTGYNMNWVRQAPGQGLEWMGNIDPYYGGTNYNQKFKGKATITADKSTSTAYMELSSLRSEDTAVYYCARETWFITTGVIKKGFYFDYWGQGTTVTVSS VL: EIVLTQSPATLSLSPGERATLACSASSIISSNYLHWYQQKPGQAPRLLIYRTSSLASGIPARFSGSGSGTDYTLTISSLEPEDFAVYYCQQGSSIPRTFGGGTKVEIKR	0.162	–	0.196	–
27B9-1G3_hzH3L3_hIgG1 (antibody, V domains shown, Humanized, hIgG1/K; hzVH03 + hzVL03) VH: QVQLVQSGAEVKKPGSSVKVSCKASGGTFSGYNMNWVRQAPGQGLEWMGNIDPYYGGTNYNQKFKGKATITADKSTSTAYMELSSLRSEDTAVYYCARETWFITTGVIKKGFYFDYWGQGTTVTVSS VL: EIVLTQSPATLSLSPGERATLACSASSIISSNYLHWYQQKPGQSPRLLIYRTSSLASGVPARFSGSGSGTSYTLTISSLEPEDFAVYYCQQGSSIPRTFGGGTKVEIKR	0.189	–	0.198	–
27B9-1G3_hzH1L3_hIgG1 (antibody, V domains shown, Humanized, hIgG1/K; hzVH01 + hzVL03) VH: QVQLVQSGAEVKKPGSSVKVSCKASGGTFSGYNMNWVRQAPGQGLEWMGNIDPYYGGTNYNQKFKGRVTITADKSTSTAYMELSSLRSEDTAVYYCARETWFITTGVIKKGFYFDYWGQGTTVTVSS VL: EIVLTQSPATLSLSPGERATLACSASSIISSNYLHWYQQKPGQSPRLLIYRTSSLASGVPARFSGSGSGTSYTLTISSLEPEDFAVYYCQQGSSIPRTFGGGTKVEIKR	0.228	–	0.175	–
27B9-1G3_hzH3L2_hIgG1 (antibody, V domains shown, Humanized, hIgG1/K; hzVH03 + hzVL02) VH: QVQLVQSGAEVKKPGSSVKVSCKASGGTFSGYNMNWVRQAPGQGLEWMGNIDPYYGGTNYNQKFKGKATITADKSTSTAYMELSSLRSEDTAVYYCARETWFITTGVIKKGFYFDYWGQGTTVTVSS VL: EIVLTQSPATLSLSPGERATLACSASSIISSNYLHWYQQKPGQAPRLLIYRTSSLASGIPARFSGSGSGTDYTLTISSLEPEDFAVYYCQQGSSIPRTFGGGTKVEIKR	0.15	–	0.2	–
27B9-1G3_hzH2L1_hIgG1 (antibody, V domains shown, Humanized, hIgG1/K; hzVH02 + hzVL01) VH: QVQLVQSGAEVKKPGSSVKVSCKASGYSFTGYNMNWVRQAPGQGLEWMGNIDPYYGGTNYNQKFKGRVTITADKSTSTAYMELSSLRSEDTAVYYCARETWFITTGVIKKGFYFDYWGQGTTVTVSS VL: EIVLTQSPATLSLSPGERATLSCSASSIISSNYLHWYQQKPGQAPRLLIYRTSSLASGIPARFSGSGSGTDFTLTISSLEPEDFAVYYCQQGSSIPRTFGGGTKVEIKR	0.269	–	0.246	–
27B9-1G3_hzH4L1_hIgG1 (antibody, V domains shown, Humanized, hIgG1/K; hzVH04 + hzVL01) VH: QVQLVQSGAEVKKPGSSVKVSCKASGYSFTGYNMNWVRQAPGQGLEWMGNIDPYYGGTNYNQKFKGKATITADKSTSTAYMELSSLRSEDTAVYYCARETWFITTGVIKKGFYFDYWGQGTTVTVSS VL: EIVLTQSPATLSLSPGERATLSCSASSIISSNYLHWYQQKPGQAPRLLIYRTSSLASGIPARFSGSGSGTDFTLTISSLEPEDFAVYYCQQGSSIPRTFGGGTKVEIKR	0.163	–	0.178	–
27B9-1G3_hzH2L2_hIgG1 (antibody, V domains shown, Humanized, hIgG1/K; hzVH02 + hzVL02) VH: QVQLVQSGAEVKKPGSSVKVSCKASGYSFTGYNMNWVRQAPGQGLEWMGNIDPYYGGTNYNQKFKGRVTITADKSTSTAYMELSSLRSEDTAVYYCARETWFITTGVIKKGFYFDYWGQGTTVTVSS VL: EIVLTQSPATLSLSPGERATLACSASSIISSNYLHWYQQKPGQAPRLLIYRTSSLASGIPARFSGSGSGTDYTLTISSLEPEDFAVYYCQQGSSIPRTFGGGTKVEIKR	0.299	–	0.19	–
27B9-1G3_hzH3L1_hIgG1 (antibody, V domains shown, Humanized, hIgG1/K; hzVH03 + hzVL01) VH: QVQLVQSGAEVKKPGSSVKVSCKASGGTFSGYNMNWVRQAPGQGLEWMGNIDPYYGGTNYNQKFKGKATITADKSTSTAYMELSSLRSEDTAVYYCARETWFITTGVIKKGFYFDYWGQGTTVTVSS VL: EIVLTQSPATLSLSPGERATLSCSASSIISSNYLHWYQQKPGQAPRLLIYRTSSLASGIPARFSGSGSGTDFTLTISSLEPEDFAVYYCQQGSSIPRTFGGGTKVEIKR	0.121	–	0.175	–
